The target of the assay is Porcine circovirus 2 (PCV2) virus like particle, Baculovirus expressed capsid protein (Porcine circovirus 2). In words: cryo-EM structure.

The text below walks through data of article doi:10.1101/370411.

A word on the stoichiometry N: it is a count of units in the complex or per binding partner. For “Porcine circovirus 2 (PCV2) virus like particle, Baculovirus expressed capsid protein (natural protein)”, the stoichiometry N stood at 60.
